In patent publication US20230406907A1:
Read-outs that look alike come from different tables or passages of the source.

How the values were obtained:
[1] = target: T1, SARS-CoV-2 spike protein RBD (amino acids 319-537 of SEQ ID NO:1, i.e. SEQ ID NO:5) with a carboxy t (SARS-CoV-2), P0DTC2; conditions: remark: other sources report otherwise
[2] = target: T1, SARS-CoV-2 spike protein RBD (amino …); conditions: remark: other sources report otherwise; remark: listed apart in the source

B1: antibody S1D2 (fully human recombinant monoclonal IgG1, no Fc mutation) (antibody, V domains shown)
VH: EVQLVESGGGLIQPGGSLRLSCAASGFTVSSNYMSWVRQAPGKGLEWVSIIYPGGSTNYADSVKGRFTISRDNSRNTLYLQMNSLRAEDTAVYYCARELGYYGMDVWGQGTTVTVSS
VL: DIQMTQSPSSVSASVGDRVTITCRASQGISTWLVWYQQKPGKAPNLLIYGASSLQSGVPSRFSGSGSGTDFTLTISSLQPEDFATYYCQQANSFPYTFGQGTKLEIK
[1]
  Kd: 46 nM
[2]
  Kd: 46.2 nM
  koff: 0.027 s⁻¹
  kon: 584000 M⁻¹ s⁻¹
